Data published in publication PMC5823465 (PLoS Neglected Tropical Diseases, 2018).

B1: VIS513 (antibody, V domains shown)
VH: QVQLVQSGAEVKKPGASVKVSCKAGFNIKDVYMSWVRQAPEQGLEWMGRIDPENGDTKYDPKLQGRVTMTADTSTNTAYMELRSLRSDDTAVYYCARGWEGFAYWGQGTLVTVSS
VL: DIVMTQSPASLAVSLGQRATISCRASENVDKYGNSFMHWYQQKPGQPPKLLIYRASELQWGVPDRFSGSGSGTDFTLTISSLQAEDVAVYYCQRSNEVPWTFGQGTKLEIK

Legend:
Assay in all cases: ELISA; competition ELISA, KD in solution at equilibrium: serial dilutions of EDIII mixed with antibody at 0.2 nM, incubated overnight; unbound or singly bound antibody measured on Maxisorp plates coated with EDIII-DV1, detected with HRP rabbit anti-human IgG; mass action model adjusted for antibody bivalence
VIS513 = target: VIS513
[1] = target: EDIII domain of the E protein, DENV1 HAW, wild type (Dengue virus type 1, strain Hawaii 1944 …, UniProt A0A097PIH4, strain); conditions: both partners purified
[2] = target: T1, EDIII domain of the E protein, DENV2 NGC, wild type (Dengue virus type 2, strain NGC …, UniProt A0A097PIE2, strain); conditions: both partners purified
T1 construct: also called DENV2 NGC WT; DV2-NGC

[3] = target: EDIII domain of the E protein, DENV3 H87, wild type (Dengue virus type 3, strain H87 …, UniProt A0A0U2UQM7, strain); conditions: both partners purified

Molecule | Kd (VIS513) | also measured
EDIII domain of the E protein, DENV1 HAW, K310R (domain or fragment) | 0.39 nM | –
EDIII domain of the E protein, DENV2 NGC, K310R (domain or fragment) | 0.79 nM | –
EDIII domain of the E protein, DENV3 H87, K308R (domain or fragment) | 170 nM | –
EDIII domain of the E protein, DENV3 H87, L301S (domain or fragment) | 1.7 nM | –
EDIII domain of the E protein, DENV4 BC287, K310R (domain or fragment) | 618 nM | –
B1 | – | Kd [1]: < 0.1 nM; Kd [2]: < 0.1 nM; Kd [3]: 1.5 nM
